Experimental data: patent US20250236680A1 (XI AN ORIMAB BIOTECHNOLOGY, published 2025)
Residue numbers refer to the chain shown, from its start.

B1: PSMAb (parent anti-PSMA full antibody) (antibody, human IgG1, lambda, V domains shown)
VH: EVQLVESGGALAKPGGSLRLSCAASGFTLSGYAMHWVRQAPGKGLEWVAVISYDGSNKYYADSVKGRFTVSRDNSKNTLFLQMNSLRPEDTAVYYCAKGLTWGLGDNDALDIWGPGTTVTVSS
VL: QSVLTQPPSVSGAPGQSVIISCTGSSSNIGAGSHVHWYQQVPGTAPKLLIYENTNRPSGVPDRFSGSKSGTSGSLAITGLQPEDEADYYCATWDDSLNGVIFGGGTKATVLG
notes: IgG1 with lambda constant region; also called PSMAb-WT; PMSAb-WT
B2: PSMAbLm-AF (afucosylated PSMAb with N=>S mutation in light chain CDR3 region) (antibody, human IgG1, lambda, V domains shown)
VH: B1 VH
VL: B1 VL with N98S
modifications: afucosylated (expressed in Fut8-/- CHO-K1)
B3: PSMAb-AF (afucosylated PSMAb) (antibody, human IgG1, lambda, V domains shown)
VH: B1 VH
VL: B1 VL
modifications: afucosylated (expressed in Fut8-/- CHO-K1)
B4: PSMAbLm (PSMAb with N to S mutation in light chain CDR3) (antibody, human IgG1, lambda, V domains shown)
VH: B1 VH
VL: B1 VL with N98S
notes: also called PMSAbLm; full antibody from Mut-gy1-2 scFv

What was measured:
PSMA on PSMA+CHO cells = PSMA on PSMA+CHO cells (UniProt Q04609 1-750, limits assumed); experiment: cell-based or functional assay
[1] = molecular target: T1, biotinylated PSMA extracellular domain recombinant protein (Acrobiosystems) (Homo sapiens (Human), UniProt Q04609 44-750, biotinylated); experiment: capture ELISA, curve fit in GraphPad Prism
T1 construct: Bought reagent
Experimental: (§1) Goat anti-human-IgG1 (Fc specific) (Jackson ImmunoResearch Laboratories, Inc, Pennsylvania, USA) was coated on wells of ELISA plate in 100 μl PBS at the concentration of 3 μg/ml, 4° C. overnight. The wells were washed twice with 200 μl PBST (PBS, pH7.4, containing 0.05% Tween 20) and then blocked with 400 μl PBS™ (PBST containing 5% dry milk) for 2 h at room temperature. Three-fold serially diluted PSMAb and PSMAbLm starting from 6 nM down to 0.1 pM in 50 μl PBS™ were then incubated with the wells respectively for 1 h at room temperature. After 6 washes with PBST, the wells were incubated with 50 μl biotinylated PSMA extracellular domain recombinant protein (Acrobiosystems, Delaware, USA) at the concentration of 0.5 μg/ml in PBS™ for 1 h at room temperature. After incubation, the wells were washed 6 times using PBST and incubated with 50 μl 1:1000 diluted streptavidin-HRP (BD bioscience, California, USA) in PBS™. After final 6 washes with PBST, colorimetric signals were developed by incubation with 70 μl 3, 3′, 5, 5′-tetramethylbenzidine (TMB, eBioscience, CA, USA) and for 20 min at room temperature, then stopped by incubation with 70 μl 1 M H₂SO₄. The absorbance was measured at 450 nm using a microplate reader (VWR, PA, USA). The binding curves were analyzed using GraphPad Prism 5.0 software.
(§2) CDR3 regions of both heavy and light chains are pivotal for antigen binding. […]

[2] = molecular target: T1, biotinylated PSMA extracellular domain …; experiment: capture ELISA
Experimental: as §1, §2

PSMA on PSMA+CHO cells, sequence (Q04609 whole entry, the tested form may be a part): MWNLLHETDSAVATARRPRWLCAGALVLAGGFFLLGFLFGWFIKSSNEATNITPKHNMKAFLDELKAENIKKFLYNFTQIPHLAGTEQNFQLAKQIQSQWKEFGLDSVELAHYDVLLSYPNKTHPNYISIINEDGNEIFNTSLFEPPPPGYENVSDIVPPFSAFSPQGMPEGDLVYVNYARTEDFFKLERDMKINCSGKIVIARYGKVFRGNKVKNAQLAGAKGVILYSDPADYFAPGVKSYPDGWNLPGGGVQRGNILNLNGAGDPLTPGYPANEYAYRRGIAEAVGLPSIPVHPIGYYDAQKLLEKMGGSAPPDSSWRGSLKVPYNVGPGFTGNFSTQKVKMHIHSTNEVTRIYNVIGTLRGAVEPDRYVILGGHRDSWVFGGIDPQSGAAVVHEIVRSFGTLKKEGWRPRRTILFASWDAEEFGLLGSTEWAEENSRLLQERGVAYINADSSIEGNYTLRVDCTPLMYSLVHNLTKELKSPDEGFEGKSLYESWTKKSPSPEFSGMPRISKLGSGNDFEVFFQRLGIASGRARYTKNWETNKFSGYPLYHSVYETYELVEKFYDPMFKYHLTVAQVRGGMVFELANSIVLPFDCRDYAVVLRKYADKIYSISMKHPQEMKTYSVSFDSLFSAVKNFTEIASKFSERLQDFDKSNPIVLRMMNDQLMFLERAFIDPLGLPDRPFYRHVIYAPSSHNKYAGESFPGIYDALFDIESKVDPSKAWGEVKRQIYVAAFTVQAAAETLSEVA
T1 sequence (Q04609 44-750): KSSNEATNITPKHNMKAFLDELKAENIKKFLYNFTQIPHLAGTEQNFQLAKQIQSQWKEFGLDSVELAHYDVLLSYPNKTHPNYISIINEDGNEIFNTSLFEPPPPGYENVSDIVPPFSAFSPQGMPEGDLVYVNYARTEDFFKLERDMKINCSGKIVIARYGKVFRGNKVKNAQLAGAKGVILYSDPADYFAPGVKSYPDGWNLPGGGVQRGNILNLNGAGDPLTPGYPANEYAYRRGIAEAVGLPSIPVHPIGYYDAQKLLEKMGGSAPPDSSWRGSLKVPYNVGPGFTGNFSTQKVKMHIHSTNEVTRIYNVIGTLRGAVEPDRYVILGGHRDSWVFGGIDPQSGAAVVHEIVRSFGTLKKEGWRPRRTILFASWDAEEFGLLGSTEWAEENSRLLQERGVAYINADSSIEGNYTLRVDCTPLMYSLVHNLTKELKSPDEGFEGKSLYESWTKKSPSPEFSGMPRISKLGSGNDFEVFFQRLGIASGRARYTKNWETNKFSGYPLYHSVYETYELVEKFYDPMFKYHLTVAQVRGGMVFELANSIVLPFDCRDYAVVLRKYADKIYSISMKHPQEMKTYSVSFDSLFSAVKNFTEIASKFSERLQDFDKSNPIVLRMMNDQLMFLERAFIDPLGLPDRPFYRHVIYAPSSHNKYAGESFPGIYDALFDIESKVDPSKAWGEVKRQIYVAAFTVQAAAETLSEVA

Binder | Luciferase signal increase fold (ADCC, CD16-Jurkat reporter cells) at 0 pg/ml antibody (PSMA on PSMA+CHO cells) | Luciferase signal increase fold (ADCC, CD16-Jurkat reporter cells) at 2.286 pg/ml antibody (PSMA on PSMA+CHO cells) | Luciferase signal increase fold (ADCC, CD16-Jurkat reporter cells) at 6.859 pg/ml antibody (PSMA on PSMA+CHO cells) | Luciferase signal increase fold (ADCC, CD16-Jurkat reporter cells) at 20.576 pg/ml antibody (PSMA on PSMA+CHO cells) | Kd [1] | fold higher affinity than PSMAb [2]
B1 | 1.04 fold | 18.4 fold | 30 fold | 43.1 fold | 109 pM | –
B2 | 1.1 fold | 38.9 fold | 56.6 fold | 54.7 fold | – | –
B3 | 0.859 fold | 33 fold | 52.9 fold | 55.5 fold | – | –
B4 | – | – | – | – | 47.9 pM | ~2.3 fold
